Columns and labels:
[1] = biological target: T1, Maackia amurensis lectin (MAL) (Maackia amurensis); test: lectin ELISA; slope of absorbance at 405 nm against ng Hp
T1 construct: Used at 10 µg/ml in the lectin ELISA

[2] = biological target: T2, Lotus tetragonolobus lectin (LTL) (Lotus tetragonolobus, UniProt P19664 1-240); test: as above
T2 construct: Used at 2 µg/ml in the lectin ELISA
T2 sequence (looked up): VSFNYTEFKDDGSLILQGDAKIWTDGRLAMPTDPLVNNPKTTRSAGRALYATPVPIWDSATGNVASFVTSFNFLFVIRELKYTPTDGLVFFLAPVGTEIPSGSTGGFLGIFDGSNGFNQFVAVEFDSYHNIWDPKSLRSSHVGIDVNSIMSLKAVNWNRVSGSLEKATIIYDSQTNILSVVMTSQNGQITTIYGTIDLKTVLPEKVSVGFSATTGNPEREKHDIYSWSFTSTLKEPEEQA

T1 sequence (P0DKL3 30-278): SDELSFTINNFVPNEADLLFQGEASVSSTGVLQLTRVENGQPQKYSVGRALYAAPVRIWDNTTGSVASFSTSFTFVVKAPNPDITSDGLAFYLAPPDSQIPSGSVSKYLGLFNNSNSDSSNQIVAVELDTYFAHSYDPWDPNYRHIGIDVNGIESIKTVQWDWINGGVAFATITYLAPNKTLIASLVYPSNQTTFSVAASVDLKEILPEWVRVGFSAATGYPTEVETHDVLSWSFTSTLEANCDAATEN

fold binding relative to sHp [1]: 10 times (vs sHp)
fold binding relative to sHp [2]: 11 times (vs sHp)
B1: endometriosis-associated peritoneal endometriotic haptoglobin (pHp) (other, human)
chain 1: VDSGNDVTDIADDGCPKPPEIAHGYVEHSVRYQCKNYYKLRTEGDGVYTLNDKKQWINKAVGDKLPECEADDGCPKPPEIAHGYVEHSVRYQCKNYYKLRTEGDGVYTLNNEKQWINKAVGDKLPECEAVCGKPKNPANPVQ
chain 2: ILGGHLDAKGSFPWQAKMVSHHNLTTGATLINEQWLLTTAKNLFLNHSENATAKDIAPTLTLYVGKKQLVEIEKVVLHPNYSQVDIGLIKLKQKVSVNERVMPICLPSKDYAEVGRVGYVSGWGRNANFKFTDHLKYVMLPVADQDQCIRHYEGSTVPEKKTPKSPVGVQPILNEHTFCAGMSKYQEDTCYGDAGSAFAVHDLEEDTWYATGILSFDKSCAVAEYGVYVKVTSIQDWVQKTIAEN
modifications: N-glycosylated; 3 kDa less carbohydrate than sHp beta-chain; more alpha(2-3) sialic acid and fucose than sHp
notes: domain: α-subunit;domain: β-subunit; also called peritoneal endometriotic Hp

From US20030166014A1 (CURATORS OF THE UNIVERSITY OF MISSOURI, published 2003)
